Drawing on patent publication US20140005125A1 (Molecular Partners, published 2014), this text covers Kd and IC50 for 26 molecules.

Sequences and labels used below:
B1: DARPin #35 (designed binder)
chain: MRGSHHHHHHGSDLGQKLLYAAEHGQDDEVRILLAAGADVNAKDQTGSTPLHYAAVWGHMEIVEVLLKAGADVNAQDLWGATPADLAAFLGHEDIAVVLQKLN
B2: DARPin #47 (designed binder)
chain: MRGSHHHHHHGSDLGKKLLEAARAGQDDEVRILLKAGADVNAKDKSGHTPLHLAAYSGHLEIVEVLLKAGADVNAKDQEGTTPLHFAASVGHLEIVEVLLKAGADVNAQDHYGATPADLAALIGHEDIAEVLQKLN
B3: DARPin #44 (designed binder)
chain: B2 chain with K16A, E20H, R23V, A24V, K35A
B4: DARPin #45 (designed binder)
chain: B2 chain with I32E
B5: DARPin #46 (designed binder)
chain: B2 chain with L34M, K35A, A36N
B6: DARPin #51 (designed binder)
chain: MRGSHHHHHHGSDLGKKLLEAARAGQDDEVRILMANGADVNAKDLNGQTPLHLAADIGHLEIVEVLLKAGADVNAKDYAGSTPLRLAAWAGHLEIVEVLLKAGADVNAKDYFGYTPLHLAAYFGHLEIVEVLLKAGADVNAQDKFGKTAFDISIDNGNEDLAEILQKLN
B7: DARPin #54 (designed binder)
chain: B6 chain with F145S, A149P, F150A, I152L, S153A, I154A, N156A, N158H, L161I, I164V
B8: DARPin #55 (designed binder)
chain: B6 chain with M34L, A35K, N36A
B9: DARPin #53 (designed binder)
chain: B6 chain with G15D, A149P, F150A, S153A, I154A, N158H, L161I, I164V
B10: DARPin #56 (designed binder)
chain: MRGSHHHHHHGSDLDKKLLEAARAGQDDEVRILLKAGADVNAKDLNGQTPLHLAADIGHLEIVEVLLKAGADVNAKDYAGSTPLRLAAWAGHLEIVEVLLKAGADVNAKDYFGYTPLHLAAYFGHLEIVEVLLKAGADVNAQDKFGKTPADIAADNGHEDIAEVLQKLN
B11: DARPin #34 (designed binder)
chain: MRGSHHHHHHGSDLGDKLLQSDLGRKLLHAARSGQDDEVRILLAAGADVNAKDEDGTTPLHYAAAWGHLEIVEVLLKAGADVNAQDIYGATPADLAAYIGHEDIAEVLQKLN
B12: DARPin #43 (designed binder)
chain: MRGSHHHHHHGSDLGLKLLEAAQRGQDDEVRILLAAGADVNAKDREGWTPLHVAAYEGHLEIVEVLLKAGADVNAKDYTGLTPLHVAAVWGHLEIVEVLLKAGADVNAQDIYGATPADLAAYIGHEDIAEVLQKLN
B13: DARPin #57 (designed binder)
chain: B10 chain with D15G, F145S, I152L, N156A
B14: DARPin #58 (designed binder)
chain: B10 chain with D15G, I32E, F145S, I152L, N156A
B15: DARPin #29 (designed binder)
chain: MRGSHHHHHHGSDLGKKLLEAARAGQDDEVRILLKAGADVNAKDEEGTTPLHYAAVWGHLEIVEVLLKAGADVNAQDIYGATPADLAALVGHEDIAEVLQKLN
B16: DARPin #36 (designed binder)
chain: B15 chain with K16S, E20T, R23L, A24D, K35A, W57V, Y79W
B17: DARPin #33 (designed binder)
chain: B15 chain with K16H, E20Q, R23E, A24Q, K35A, E46Y, Y53F, I78V, Y79F, L89Y
B18: DARPin #32 (designed binder)
chain: B15 chain with K16H, E20Q, R23K, A24H, K35A, E45D, I78A, L89F, V90L
B19: DARPin #26 (designed binder)
chain: B15 chain with K35A, V98I
B20: DARPin #25 (designed binder)
chain: B15 chain with L34M, K35A, A36N, V98I
B21: DARPin #38 (designed binder)
chain: B15 chain with K16D, E20W, R23K, A24H, K35A, E45D, T48S, I62T, Y79W, V90L
B22: DARPin #37 (designed binder)
chain: B15 chain with K16W, A24T, K35A, E45I, E46T, V56A, L60M, A69T, I78L, V90L
B23: DARPin #40 (designed binder)
chain: B15 chain with K16Y, E20S, R23Q, A24Y, K35A, E45Y, E46S, V56T, V90I
B24: DARPin #31 (designed binder)
chain: B15 chain with I32E, W57F
B25: DARPin #42 (designed binder)
chain: MRGSHHHHHHGSDLGYKLLFAAYVGQDDEVRILLAAGADVNAKDRHGRTPLHLAAWEGHLEIVEVLLKAGADVNAKDDEGTTPLHLLAAWEGHLEIVEVLLKAGADVNAQDVYGATPADLAAYIGHEDIAEVLQKLN
B26: DARPin #52 (designed binder)
chain: MRGSHHHHHHGSDLGKKLLEAARAGQDDEVRILMANGADVNAQDLNGQTPLHLAADIGHLEIVEVLLKHGADVNAQDYAGSTPLRLAAWAGHLEIVEVLLKNGADVNANDYFGYTPLHLAAYFGHLEIVDVLLKHGADVNAQDKFGKTPADIAADNGHEDIAEVLQKLN

Numbering of substitutions follows the chain as printed. Where only a bound is given, the exact number is not on record here.

T1 sequence (P01127 82-190 limits assumed): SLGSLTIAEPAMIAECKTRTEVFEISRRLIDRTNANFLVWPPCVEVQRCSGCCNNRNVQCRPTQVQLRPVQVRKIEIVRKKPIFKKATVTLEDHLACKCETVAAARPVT

One assay has as its target T1, Recombinant human PDGF-BB (human, UniProt P01127 82-190).
T1 construct: For SPR it was chemically biotinylated on primary amines and captured on neutravidin; also called PDGF-BB (human); Reliatech 200-055
Kind of assay: SPR (ProteOn), biotinylated PDGF-BB on neutravidin chip, DARPin injected; Kd from on- and off-rates. How it is done:
(§1) Biotinylated PDGF-BB molecules from human and mouse were immobilized in a flow cell through binding to coated […] and the interaction with various selected DARPins was analyzed.
(§2) SPR was measured using a ProteOn instrument (BioRad) and measurement was performed according standard procedures known to the person skilled in the art. The running buffer was PBS, pH 7.4, containing 0.005% Tween 20®. Neutravidin was covalently immobilized on a GLC chip (BioRad) to a level of about 8000 resonance units (RU). Immobilization of PDGF-BB on the neutravidin coated chip was then performed. The interaction of DARPin PDGF-BB was then measured by injecting 100 μl running buffer (PBS containing 0.005% Tween®) containing serial dilutions of DARPins of concentration of […] (on-rate measurement), followed by a running buffer flow for between 10 minutes and up to 3 hours at a constant flow rate of 30 μl/min (off-rate measurement). The signals (i.e. resonance unit (RU) values) of an uncoated reference cell and a reference injection (i.e. injection of running buffer only) were subtracted from the RU traces obtained after injection of […] (double-referencing). From the SRP traces obtained from the on-rate and off-rate measurements the on- and off-rate of the corresponding DARPin PDGF-BB interaction can be determined.
(§3) Dissociation constants (Kd) were calculated from the estimated on- and off-rates using standard procedures known to the person skilled in the art.
A word on the Kd: it is the free concentration of one partner at which half of the binding sites on the other are occupied at equilibrium, for simple one-to-one binding. Consider B1, for which the Kd came out at 0.0956 nM.

Turning to B2, the Kd was 0.0937 nM.

Turning to B3, the equilibrium dissociation constant (Kd) worked out at 0.0768 nM.

For B4, the dissociation constant Kd stood at 0.108 nM.

As for B5, the Kd was found to be 0.112 nM.

Take B6: the Kd worked out at 0.121 nM.

With B7, the dissociation constant (Kd) stood at 0.245 nM.

Regarding B8, the Kd was 0.0555 nM.

With B9, the Kd is 0.128 nM.

With B10, the dissociation constant Kd worked out at 0.15 nM.

Regarding B11, the equilibrium dissociation constant (Kd) turned out to be 0.0775 nM.

On to B12, for which the equilibrium dissociation constant (Kd) is 1290 nM.

On to B13, for which the Kd was 0.123 nM.

For the molecule B14, the dissociation constant Kd turned out to be 0.257 nM.

Turning to B15, the Kd was 0.105 nM.

As for B16, the dissociation constant (Kd) came out at 0.0242 nM.

B17: the dissociation constant Kd was 0.0806 nM.

Consider B18, for which the dissociation constant (Kd) was determined as 0.0638 nM.

B19: the Kd was found to be 0.0177 nM.

On to B20, for which the dissociation constant (Kd) came to 0.0147 nM.

Regarding B21, the Kd is 0.0941 nM.

As for B22, the dissociation constant (Kd) is 0.152 nM.

Turning to B23, the Kd worked out at 0.0344 nM.

Regarding B24, the Kd was found to be 0.109 nM.

Take B25: the Kd is 0.0805 nM.

For another assay, the target named is T2, Recombinant murine PDGF-BB (mouse, UniProt P31240 82-190, limits assumed).
T2 construct: For SPR chemically biotinylated on primary amines and captured on neutravidin; also called mouse PDGF-BB; PDGF-BB (mouse)
T2 sequence (P31240 82-190 limits assumed): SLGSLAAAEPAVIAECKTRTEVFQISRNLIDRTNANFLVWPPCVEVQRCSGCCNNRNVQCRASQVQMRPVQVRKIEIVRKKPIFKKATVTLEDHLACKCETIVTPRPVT
Described as above. The method, then: as §1, §2, §3
Regarding B1, the dissociation constant (Kd) was found to be 0.0981 nM.

B3: the dissociation constant (Kd) came out at 0.0902 nM.

Regarding B11, the Kd was found to be 0.0592 nM.

With B12, the Kd was 1510 nM.

Consider B16, for which the Kd amounted to 0.053 nM.

As to B17, the Kd is 0.0904 nM.

In the case of B18, the Kd was determined as 0.0834 nM.

With B19, the Kd came to 0.0174 nM.

In the case of B20, the equilibrium dissociation constant (Kd) was determined as 0.0128 nM.

For the molecule B21, the dissociation constant (Kd) is 0.0583 nM.

With B22, the Kd stood at 0.0828 nM.

As to B23, the Kd was 0.0608 nM.

For the molecule B25, the Kd was determined as 0.0974 nM.

The target of another assay is T1, Recombinant human PDGF-BB. Kind of assay: receptor competition ELISA: DARPin preincubated with PDGF-BB, free PDGF-BB captured on coated PDGFRbeta/Fc; mean IC50. The method, then: The potency of PEGylated anti-PDGF-BB DARPins to inhibit the binding of human PDGF-BB to its receptor PDGFRbeta was determined in a in a receptor competition ELISA (based on PDGF-BB Quantikine, R&D Systems). PDGFRbeta/Fc chimera has been precoated on a microplate. The DARPins were preincubated in assay diluent from the PDGF-BB Quantikine kit (R&D Systems) with a defined amount of PDGF-BB and incubated at room temperature for 2 hours with shaking at 750 rpm. These preincubation mixtures were then transferred into the precoated wells and any PDGF-BB that is not blocked by the DARPins was bound by the immobilized receptor. After washing away any unbound substances, a horse radish peroxidase-linked polyclonal antibody specific for PDGF-BB was added to the wells. Following a wash to remove any unbound antibody-enzyme reagent, a substrate solution was added to the wells and color was developing in proportion to the amount of PDGF-BB bound. The color development was stopped and the intensity of the color was measured at […]. Example titration curves are given for a set of DARPins in FIG. 2. IC₅₀ values were calculated from such titration curves obtained as described above using Graph Pad Prism software and standard procedures known to the person skilled in the art.
On the technique in general: In an ELISA, binding on a coated surface is turned into a signal by an enzyme label.
For orientation: IC50 means the concentration needed to halve the response being measured. Consider B2, for which the half-maximal inhibitory concentration (IC50) was 0.14 nM.

B3: the half-inhibitory concentration (IC50) came out at 0.13 nM.

Regarding B4, the IC50 was 0.16 nM.

As for B5, the IC50 amounted to 0.15 nM.

Regarding B6, the IC50 stood at 0.008 nM.

B7: the IC50 amounted to 0.21 nM.

As to B8, the IC50 came to 0.014 nM.

Take B9: the half-inhibitory concentration (IC50) came to 0.036 nM.

As for B10, the IC50 turned out to be 0.17 nM.

Regarding B11, the IC50 is 0.21 nM.

On to B13, for which the IC50 is 0.204 nM.

For the molecule B14, the IC50 was 0.47 nM.

As for B15, the 50% inhibitory concentration (IC50) is 0.015 nM.

As for B21, the IC50 stood at 0.085 nM.

B22: the IC50 is over 0.4 nM.

Regarding B24, the half-inhibitory concentration (IC50) worked out at 0.48 nM.

For the molecule B26, the half-inhibitory concentration (IC50) amounted to 0.068 nM.
